In patent publication US20240228586:

Biological target: M-L2-IL12 (masked mouse IL-12 whose linker contains 3 repeats of VPLSLYSG), Q60837
Sequence (Q60837 whole entry, looked up): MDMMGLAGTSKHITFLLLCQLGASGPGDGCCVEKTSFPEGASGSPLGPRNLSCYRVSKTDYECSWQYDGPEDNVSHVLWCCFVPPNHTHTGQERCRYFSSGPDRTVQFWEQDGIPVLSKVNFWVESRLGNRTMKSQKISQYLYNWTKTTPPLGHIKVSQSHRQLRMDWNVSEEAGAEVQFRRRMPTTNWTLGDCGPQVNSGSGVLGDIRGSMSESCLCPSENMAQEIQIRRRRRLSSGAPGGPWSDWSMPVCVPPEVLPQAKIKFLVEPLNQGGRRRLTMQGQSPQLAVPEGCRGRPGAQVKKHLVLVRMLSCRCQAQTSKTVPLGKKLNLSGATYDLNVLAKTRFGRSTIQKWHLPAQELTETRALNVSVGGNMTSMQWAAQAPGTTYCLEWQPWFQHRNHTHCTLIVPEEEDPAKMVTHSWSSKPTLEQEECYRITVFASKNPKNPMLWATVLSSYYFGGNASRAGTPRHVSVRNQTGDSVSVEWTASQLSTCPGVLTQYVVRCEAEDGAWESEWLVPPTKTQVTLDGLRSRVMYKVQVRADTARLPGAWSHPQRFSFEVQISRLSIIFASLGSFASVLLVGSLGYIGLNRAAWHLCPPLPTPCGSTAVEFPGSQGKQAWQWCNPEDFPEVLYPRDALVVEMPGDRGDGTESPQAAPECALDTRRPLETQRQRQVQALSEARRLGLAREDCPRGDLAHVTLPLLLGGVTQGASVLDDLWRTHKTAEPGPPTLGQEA

B1: recombinant mouse matrix metalloproteinase-9 (protein)
chain: FQTFKGLKWDHHNITYWIQNYSEDLPRDMIDDAFARAFAVWGEVAPLTFTRVYGPEADIVIQFGVAEHGDGYPFDGKDGLLAHAFPPGAGVQGDAHFDDDELWSLGKGVVIPTYYGNSNGAPCHFPFTFEGRSYSACTTDGRNDGTPWCSTTADYDKDGKFGFCPSERLYTEHGNGEGKPCVFPFIFEGRSYSACTTKGRSDGYRWCATTANYDQDKLYGFCPTRVDATVVGGNSAGELCVFPFVFLGKQYSSCTSDGRRDGRLWCATTSNFDTDKKWGFCPDQGYSLFLVAAHEFGHALGLDHSSVPEALMYPLYSYLEGFPLNKDDIDGIQYLYGRGSKPDPRPPATTTTEPQPTAPPTMCPTIPPTAYPTVGPTVGPTGAPSPGPTSSPSPGPTGAPSPGPTAPPTAGSSEASTESLSPADNPCNVDVFDAIAEIQGALHFFKDGWYWKFLNHRGSPLQGPFLTARTWPALPATLDSAFEDPQTKRVFFFSGRQMWVYTGKTVLGPRSLDKLGLGPEVTHVSGLLPRRLGKALLFSKGRVWRFDLKSQKVDPQSVIRVDKEFSGVPWNSHDIFQYQDKAYFCHGKFFWRVSFQNEVNKVDHEVNQVDDVGYVTYDLLQCP
in vitro cleavage, 30 min at 37° C., SDS-PAGE: Decrease of molecular weight from ˜105 kDa to ˜60 kDa indicates proteolytic cleavage of IL12Rβ1-VP-IL12 and IL12Rβ1-LS-IL12
